The record followed here is article doi:10.1101/2023.04.10.536149.

In data set [1] the target is T1, MBP-MafB WT (Homo sapiens, UniProt Q9Y5Q3 1-323). Kind of data set: EMSA. On the technique in general: A gel shift assay detects complexes by their altered migration in electrophoresis.
The next data set deals with MBP-MafB ΔHis (Homo sapiens, UniProt Q9Y5Q3 1-323, del131-167). Kind of data set: EMSA.
For data set [2], the target named is T1, MBP-MafB WT. Kind of data set: competition.

B1: IRDye700 MARE EMSA probe (dsDNA)
DNA 1: TGCTGACTCAGCA
DNA 2: TGCTGAGTCAGCA
In the case of B1, the binding result with MBP-MafB WT [1] and with MBP-MafB ΔHis was “binds” in each case.

B2: unlabelled MARE competitor (dsDNA)
DNA 1: TGCTGACTCAGCA
DNA 2: TGCTGAGTCAGCA
With B2, in the data set with MBP-MafB WT [2], the binding result is on record as “binds”.
